From patent US20250313638A1 (KISOJI BIOTECHNOLOGY, published 2025)
Like-named read-outs stand apart in the source and are kept apart here.

Tests used:
[1] = target: PD-1 on the Jurkat effector cells of the PD-1/PD-L1 blockade bioassay (UniProt Q15116 25-288, limits assumed); test: cell-based or functional assay
BSA = target: T1, BSA; test: ELISA: BSA coated on the plate, anti-human-Fc-HRP, chemiluminescence
T1 construct: also called control protein (BSA)
Procedure: (§1) Briefly, recombinant proteins were coated on 96-well plates. Plates were covered and left at 4° C. overnight. The next day, plates were washed once with PBS and blocked with blocking buffer for 1 hour at room temperature. Binding agents were tested at the indicated concentration (357 nM starting concentration, followed by 12 one in four serial dilutions for FIG. 9B lower panel), diluted in the blocking buffer, and incubated for 1 hour at 37° C. After incubation, plates were washed three times with washing buffer. Plates were incubated with anti-human-Fc-HRP (Sigma-Aldrich, Cat. No. AP113P) diluted at 1:5000 for 1 hour at room temperature, then washed three times with PBS-T washing buffer. The signal was developed with SuperSignal™ ELISA Pico Chemiluminescent Substrate (Thermofisher, Cat. No. 37069). The plates were read on a SpectraMax™ i3x Multi-Mode Microplate Reader (Molecular Devices).

[2] = target: T2, recombinant human PD-1 protein (human, UniProt Q15116 25-167); test: ELISA: recombinant human PD-1 coated on the plate, anti-human-Fc-HRP, chemiluminescence
T2 construct: Bought (Cedarlane Cat. No. HPLC-10377-H08H-100); also called human recombinant PD1 protein; PD-1 recombinant protein
T2 sequence (Q15116 25-167 limits assumed): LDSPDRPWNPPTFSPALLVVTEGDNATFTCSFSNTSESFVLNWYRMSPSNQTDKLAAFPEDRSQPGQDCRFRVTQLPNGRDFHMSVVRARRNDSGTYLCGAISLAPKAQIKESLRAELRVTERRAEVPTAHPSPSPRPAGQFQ
Procedure: as §1

[3] = target: T2, recombinant human PD-1 protein; test: as above; remark: listed apart in the source
Procedure: as §1

[4] = target: T3, recombinant cynomolgus monkey PD-1 protein (cynomolgus monkey, UniProt B0LAJ3 25-170); test: ELISA: recombinant cynomolgus PD-1 coated on the plate, anti-human-Fc-HRP, chemiluminescence
T3 construct: also called cynomolgus monkey recombinant PD1 protein
T3 sequence (B0LAJ3 entry or part of it limits assumed): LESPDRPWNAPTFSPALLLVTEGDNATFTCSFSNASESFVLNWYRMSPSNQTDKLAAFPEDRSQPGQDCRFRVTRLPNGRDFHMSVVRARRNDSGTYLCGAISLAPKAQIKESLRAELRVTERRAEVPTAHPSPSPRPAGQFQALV
Procedure: as §1

[5] = target: T2, recombinant human PD-1 protein; test: ELISA: recombinant human PD-1 coated on the plate, anti-human-Fc-HRP, chemiluminescence; remark: listed apart in the source
Procedure: as §1

[6] = target: T4, recombinant rat PD-1 protein (rat, UniProt D3ZIN8 25-169); test: ELISA: recombinant rat PD-1 coated on the plate, anti-human-Fc-HRP, chemiluminescence
T4 construct: also called rat recombinant PD1 protein
T4 sequence: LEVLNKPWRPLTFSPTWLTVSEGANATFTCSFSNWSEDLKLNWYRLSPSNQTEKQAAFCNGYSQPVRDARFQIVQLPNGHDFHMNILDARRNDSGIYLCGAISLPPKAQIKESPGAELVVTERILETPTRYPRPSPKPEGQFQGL
Procedure: as §1

[7] = target: T5, recombinant human CD47 protein (human, UniProt Q08722 19-139); test: ELISA: recombinant human CD47 coated on the plate, chemiluminescence
T5 construct: Bought (Cedarlane Cat. No. 12283-H08H-200); also called human recombinant CD47 protein; CD47 recombinant protein

[8] = target: T6, recombinant cynomolgus CD47 protein (cynomolgus monkey, UniProt A0A5F8AK49 19-139 (rhesus entry)); test: ELISA: recombinant cynomolgus CD47 coated on the plate, chemiluminescence
T6 construct: also called cynomolgus monkey CD47 recombinant protein

[9] = target: T7, human PD-1 on CHO-PD1 cells (human, UniProt Q15116 25-288); test: flow cytometry on CHO-PD1 cells, APC anti-human-Fc secondary antibody
T7 construct: also called CHO-PD-1 cell line
T7 sequence (Q15116 25-288 limits assumed): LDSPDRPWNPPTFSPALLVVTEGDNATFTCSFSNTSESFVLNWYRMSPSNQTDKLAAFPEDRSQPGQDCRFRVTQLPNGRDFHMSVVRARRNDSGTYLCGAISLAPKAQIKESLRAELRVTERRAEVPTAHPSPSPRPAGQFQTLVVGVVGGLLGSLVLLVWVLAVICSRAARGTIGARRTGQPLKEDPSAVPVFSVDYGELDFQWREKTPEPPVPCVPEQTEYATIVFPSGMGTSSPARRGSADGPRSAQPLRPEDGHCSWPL

[10] = target: T8, human CD47 on cells (HEK293T cells, human blood cells, primary human T cells) (human, UniProt Q08722 19-323); test: flow cytometry on primary human T cells
T8 construct: Endogenous CD47 of human cells; For blood cells and T cells it is inferred from the specificity of the anti-CD47 module

T1 sequence (chain, as listed by the source limits assumed): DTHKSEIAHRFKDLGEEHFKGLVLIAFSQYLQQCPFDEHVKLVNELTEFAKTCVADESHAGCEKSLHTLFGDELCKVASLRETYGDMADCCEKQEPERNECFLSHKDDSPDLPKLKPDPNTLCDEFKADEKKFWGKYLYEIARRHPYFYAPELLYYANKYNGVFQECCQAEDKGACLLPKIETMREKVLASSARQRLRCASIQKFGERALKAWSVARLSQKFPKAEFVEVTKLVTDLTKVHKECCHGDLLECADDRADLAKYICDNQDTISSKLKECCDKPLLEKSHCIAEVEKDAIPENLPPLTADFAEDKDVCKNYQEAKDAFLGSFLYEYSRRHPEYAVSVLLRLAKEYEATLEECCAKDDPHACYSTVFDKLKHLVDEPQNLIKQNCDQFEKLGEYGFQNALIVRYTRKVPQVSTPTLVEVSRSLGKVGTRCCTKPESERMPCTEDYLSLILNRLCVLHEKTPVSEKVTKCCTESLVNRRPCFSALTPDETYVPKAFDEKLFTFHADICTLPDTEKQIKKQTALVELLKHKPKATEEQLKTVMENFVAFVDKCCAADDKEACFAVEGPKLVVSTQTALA
Sequence of PD-1 on the Jurkat effector cells of the PD-1/PD-L1 blockade bioassay (Q15116 25-288 limits assumed): as the sequence (Q15116 25-288 limits assumed) above

B1: KC036 (Fc fusion)
chain: QVQLVESGGGSVQAGGSLRLSCAASGSTDSIEYMTWFRQAPGKAREGVAALYTHTGNTYYTDSVKGRFTISQDKAKNMAYLRMDSVKSEDTAIYTCGATRKYVPVRFALDQSSYDYWGQGTQVTVSSEPKSCDKTHTCPPCPAPELLGGPSVFLFPPKPKDTLMISRTPEVTCVVVDVSHEDPEVKFNWYVDGVEVHNAKTKPREEQYNSTYRVVSVLTVLHQDWLNGKEYKCKVSNKALPAPIEKTISKAKGQPREPQVYTLPPSREQMTKNQVSLTCLVKGFYPSDIAVEWESNGQPENNYKTTPPVLNSDGSFFLYSKLTVDKSRWQQGNVFSCSVMHEALHNHYTQESLSLSPGKAPAPAPAPAPKAQVQLQESGGGWVQPGGSLRLSCVASGFTFSRSSMSWHRQAPGKERDLVAIISSSGIITHYSDSVKGRFTISRDNAKDTVYLQMNSLKPEDTAVYVCNAVLDDDSGDYWGQGTQVTVSSGGGGSGGGGSGGGGSQVQLVESGGGSVQAGGSLRLSCAASGSTDSIEYMTWFRQAPGKAREGVAALYTHTGNTYYTDSVKGRFTISQDKAKNMAYLRMDSVKSEDTAIYTCGATRKYVPVRFALDQSSYDYWGQGTQVTVSS
notes: May comprise a His-tag or not; also called (HEWL)
- EC50 (read off the curve), PD-1/PD-L1 blockade NFAT-luciferase reporter [1]: ~2 nM
- binding result (BSA): no binding (tested: about 700 nM)
- EC50 (read off the curve) [2]: ~0.1 nM
- EC50 (read off the curve) [3]: ~0.2 nM
- EC50 (read off the curve) [4]: ~0.1 nM
- EC50 (read off the curve) [5]: ~0.2 nM
- EC50 (read off the curve) [6]: ~0.1 nM

B2: KC067 (Fc fusion)
chain: QVQLVESGGGSVQAGGSLRLSCAASGSTDSIEYMTWFRQAPGKAREGVAALYTHTGNTYYTDSVKGRFTISQDKAKNMAYLRMDSVKSEDTAIYTCGATRKYVPVRFALDQSSYDYWGQGTQVTVSSEPKSCDKTHTCPPCPAPELLGGPSVFLFPPKPKDTLMISRTPEVTCVVVDVSHEDPEVKFNWYVDGVEVHNAKTKPREEQYNSTYRVVSVLTVLHQDWLNGKEYKCKVSNKALPAPIEKTISKAKGQPREPQVYTLPPSREQMTKNQVSLTCLVKGFYPSDIAVEWESNGQPENNYKTTPPVLNSDGSFFLYSKLTVDKSRWQQGNVFSCSVMHEALHNHYTQESLSLSPGKAPAPAPAPAPKAQVQLQESGGGLVQPGGSLRLSCAASGFTFSNYGMSWVRQAPGEGLEWVSSIDSTGGTTRYADSVKGRFTISRDNAKNALYLQMNSLKPEDTAVYYCAKDFLSWMPRGQGTQVTVSSGGGGSGGGGSGGGGSQVQLVESGGGSVQAGGSLRLSCAASGSTDSIEYMTWFRQAPGKAREGVAALYTHTGNTYYTDSVKGRFTISQDKAKNMAYLRMDSVKSEDTAIYTCGATRKYVPVRFALDQSSYDYWGQGTQVTVSS
notes: the ranges are mine
- EC50 (read off the curve) [3]: ~0.5 nM

B3: monoclonal anti-CD47 antibody clone B6H12 (antibody)
chain: EVQLVESGGDLVKPGGSLKLSCAASGFTFSGYGMSWVRQTPDKRLEWVATITSGGTYTYYPDSVKGRFTISRDNAKNTLYLQIDSLKSEDTAIYFCARSLAGNAMDYWGQGTSVTVSSGGGGSGGGGSGGGGSDIVMTQSPATLSVTPGDRVSLSCRASQTISDYLHWYQQKSHESPRLLIKFASQSISGIPSRFSGSGSGSDFTLSINSVEPEDVGVYYCQNGHGFPRTFGGGTKLEIK
- EC50 (read off the curve) [7]: ~0.5 nM
- EC50 (read off the curve) [8]: ~0.1 nM

B4: KC035 (Fc fusion)
chain: QVQLVESGGGSVQAGGSLRLSCAASGSTDSIEYMTWFRQAPGKAREGVAALYTHTGNTYYTDSVKGRFTISQDKAKNMAYLRMDSVKSEDTAIYTCGATRKYVPVRFALDQSSYDYWGQGTQVTVSSEPKSCDKTHTCPPCPAPELLGGPSVFLFPPKPKDTLMISRTPEVTCVVVDVSHEDPEVKFNWYVDGVEVHNAKTKPREEQYNSTYRVVSVLTVLHQDWLNGKEYKCKVSNKALPAPIEKTISKAKGQPREPQVYTLPPSREQMTKNQVSLTCLVKGFYPSDIAVEWESNGQPENNYKTTPPVLNSDGSFFLYSKLTVDKSRWQQGNVFSCSVMHEALHNHYTQESLSLSPGKAPAPAPAPAPKAQVQLVESGGGSVQAGGSLRLSCAASGSTDSIEYMTWFRQAPGKAREGVAALYTHTGNTYYTDSVKGRFTISQDKAKNMAYLRMDSVKSEDTAIYTCGATRKYVPVRFALDQSSYDYWGQGTQVTVSSGGGGSGGGGSGGGGSQVQLVESGGGSVQAGGSLRLSCAASGSTDSIEYMTWFRQAPGKAREGVAALYTHTGNTYYTDSVKGRFTISQDKAKNMAYLRMDSVKSEDTAIYTCGATRKYVPVRFALDQSSYDYWGQGTQVTVSS
notes: Three anti-HEWL VHHs on an Fc; May comprise a His-tag or not; also called negative control
- binding result [9]: no binding
- binding result [2]: no binding (tested: about 700 nM)
- binding result [10]: no binding (tested: 350 nM)
- binding result [4]: no binding (tested: about 700 nM)

B5: KC034 (Fc fusion)
VHH-hinge-CH2-CH3-linker-VHH-linker-VHH polypeptide chain: QVQLVESGGGSVQAGGSLRLSCAASGSTDSIEYMTWFRQAPGKAREGVAALYTHTGNTYYTDSVKGRFTISQDKAKNMAYLRMDSVKSEDTAIYTCGATRKYVPVRFALDQSSYDYWGQGTQVTVSSEPKSCDKTHTCPPCPAPELLGGPSVFLFPPKPKDTLMISRTPEVTCVVVDVSHEDPEVKFNWYVDGVEVHNAKTKPREEQYNSTYRVVSVLTVLHQDWLNGKEYKCKVSNKALPAPIEKTISKAKGQPREPQVYTLPPSREQMTKNQVSLTCLVKGFYPSDIAVEWESNGQPENNYKTTPPVLNSDGSFFLYSKLTVDKSRWQQGNVFSCSVMHEALHNHYTQESLSLSPGKAPAPAPAPAPKAQVQLVESGGGSVQAGGSLRLSCAASGSTDSIEYMTWFRQAPGKAREGVAALYTHTGNTYYTDSVKGRFTISQDKAKNMAYLRMDSVKSEDTAIYTCGATRKYVPVRFALDQSSYDYWGQGTQVTVSSGGGGSGGGGSGGGGSEVQLVESGGGLVQPGGSLRLSCAASGDIYKSFDMGWYRQAPGKQRDLVAVIGSRGNNRGRTNYADSVKGRFTISRDGTGNTVYLLMNKLRPEDTAIYYCNTAPLVAGRPWGRGTLVTVSS
notes: also called (HEWL)
- binding result [10]: no binding (tested: 350 nM)
